# Test results from PMC6535076, “Poly(ADP-ribosyl)ation and DNA repair synthesis in the extracts of naked mole rat, mouse, and human cells”.
# B1: Pho-dRP (dsDNA)
# DNA 1: GGCGACTAAGCCGGGC
# DNA 2: AACGCCAGGGCCTCCC
# DNA 3: GGGAGGCCCTGGCGTTGCCCGGCTTAGTCGCC
# modifications: strand 1 3'-terminal C is FAP-dCMP (photoreactive exo-N-substituted dC); strand 2 carries 5'-dRP (phosphate-linked, from Ung-treated 5'-pU)
# B2: Pho-Flap (dsDNA)
# DNA 1: GGCGACTAAGCCGGGC
# DNA 2: GATAACAACGCCAGGGCCTCCC
# DNA 3: B1 DNA 3
# modifications: strand 1 3'-terminal C is FAP-dCMP
# Legend:
# PARP2 = PARP2 (mouse (murine), UniProt O88554 1-559); experiment: photoaffinity crosslinking; 100 nM protein, 100 nM DNA, EDTA; UV photo-crosslinking, 100 nM 5'-32P photoreactive DNA, EDTA present, Pol beta carried over from probe synthesis, SDS-PAGE; binding buffer, pH and temperature not given in the material; conditions: protein: recombinant; label: 5'-32P on strand 1; nicked duplex of 3 strands (upstream, downstream, template), blunt outer ends, 5'-dRP at nick
# PARP1 = PARP1 (human, UniProt P09874 1-1014); experiment: as above; conditions: protein: recombinant; label: 5'-32P on strand 1; nicked duplex of 3 strands (upstream, downstream, template), blunt outer ends, 5'-dRP at nick
# HMGB1 = HMGB1 (calf (thymus), UniProt P10103 2-215); experiment: photoaffinity crosslinking; 300 nM protein, 100 nM DNA, EDTA; more efficient than other DNAs; UV photo-crosslinking, 100 nM 5'-32P photoreactive DNA, EDTA present, Pol beta carried over from probe synthesis, SDS-PAGE; binding buffer, pH and temperature not given in the material; conditions: protein: native; label: 5'-32P on strand 1; nicked duplex of 3 strands, blunt outer ends, 6-nt 5' single-stranded flap (GATAAC) at nick
# Sequence of HMGB1 (P10103 2-215): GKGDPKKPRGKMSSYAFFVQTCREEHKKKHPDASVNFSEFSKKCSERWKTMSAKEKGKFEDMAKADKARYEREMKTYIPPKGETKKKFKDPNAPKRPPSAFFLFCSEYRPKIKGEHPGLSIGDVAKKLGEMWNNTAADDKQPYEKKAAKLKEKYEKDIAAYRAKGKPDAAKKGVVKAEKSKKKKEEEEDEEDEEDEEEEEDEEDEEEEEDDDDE
# Sequence of PARP2 (O88554 whole entry): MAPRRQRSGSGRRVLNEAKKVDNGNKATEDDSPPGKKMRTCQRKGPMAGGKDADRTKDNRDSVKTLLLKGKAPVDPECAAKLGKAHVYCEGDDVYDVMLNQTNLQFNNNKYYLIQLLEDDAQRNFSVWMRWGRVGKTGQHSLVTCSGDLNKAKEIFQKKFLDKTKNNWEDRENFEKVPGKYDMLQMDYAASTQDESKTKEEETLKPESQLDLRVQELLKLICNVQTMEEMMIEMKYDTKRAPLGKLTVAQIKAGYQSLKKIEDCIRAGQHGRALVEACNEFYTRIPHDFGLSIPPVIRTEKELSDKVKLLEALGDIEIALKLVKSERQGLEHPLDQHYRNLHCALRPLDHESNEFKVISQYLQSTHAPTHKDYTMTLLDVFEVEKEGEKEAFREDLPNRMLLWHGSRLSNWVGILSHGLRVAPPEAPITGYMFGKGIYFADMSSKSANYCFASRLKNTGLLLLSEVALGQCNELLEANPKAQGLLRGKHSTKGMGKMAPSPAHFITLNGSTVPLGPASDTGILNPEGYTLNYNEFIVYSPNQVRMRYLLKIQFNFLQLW
# Sequence of PARP1 (P09874 whole entry): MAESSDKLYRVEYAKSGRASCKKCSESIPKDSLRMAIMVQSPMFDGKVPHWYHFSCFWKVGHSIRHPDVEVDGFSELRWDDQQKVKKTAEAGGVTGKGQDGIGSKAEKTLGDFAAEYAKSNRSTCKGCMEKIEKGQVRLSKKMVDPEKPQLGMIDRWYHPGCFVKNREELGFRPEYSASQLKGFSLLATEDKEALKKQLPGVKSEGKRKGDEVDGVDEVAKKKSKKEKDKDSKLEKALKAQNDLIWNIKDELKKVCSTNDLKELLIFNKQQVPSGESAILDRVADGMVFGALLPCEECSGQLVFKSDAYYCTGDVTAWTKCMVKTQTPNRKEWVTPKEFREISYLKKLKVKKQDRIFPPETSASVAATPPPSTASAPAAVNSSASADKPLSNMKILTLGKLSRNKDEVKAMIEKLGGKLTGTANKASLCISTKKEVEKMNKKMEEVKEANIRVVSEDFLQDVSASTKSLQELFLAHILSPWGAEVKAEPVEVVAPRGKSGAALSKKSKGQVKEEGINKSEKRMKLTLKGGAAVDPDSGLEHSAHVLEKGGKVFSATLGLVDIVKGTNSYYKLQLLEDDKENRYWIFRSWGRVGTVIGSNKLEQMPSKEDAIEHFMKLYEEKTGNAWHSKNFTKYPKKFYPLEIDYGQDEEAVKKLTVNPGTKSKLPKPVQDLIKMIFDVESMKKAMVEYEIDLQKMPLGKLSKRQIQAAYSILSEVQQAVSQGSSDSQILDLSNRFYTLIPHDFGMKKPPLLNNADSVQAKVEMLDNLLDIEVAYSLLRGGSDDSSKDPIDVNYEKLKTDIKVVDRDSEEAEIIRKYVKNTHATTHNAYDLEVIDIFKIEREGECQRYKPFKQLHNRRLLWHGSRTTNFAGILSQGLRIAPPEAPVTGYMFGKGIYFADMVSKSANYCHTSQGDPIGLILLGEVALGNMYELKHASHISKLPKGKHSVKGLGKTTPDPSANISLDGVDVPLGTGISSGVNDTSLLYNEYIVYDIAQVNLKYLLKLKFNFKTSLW
Binder,binding result (PARP2),binding result (PARP1),binding result (HMGB1)
B1,binds,binds,–
B2,–,–,binds
